The chains are these.
B1: ZNF649 (parent)
chain: LVAHQRYHTGKTPFVCPECGQPCS

Drawing on the supplement of paper PMC10567573, this text covers protein stability index for 94 variants.
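Also: lentivirally expressed fusions sorted by FACS into six bins by GFP to DsRed ratio, PSI derived from sequencing read proportions per bin multiplied by bin number.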

This data set covers variants of B1. In words: protein stability index of a GFP-peptide fusion (GPS, HEK-293T) (PSI 1-6); higher = more stable. The settings on record: c terminus: a fixed tail appended.
LVAHQRYHTGKTPFVCPECGNPCS [Q21N]: the protein stability index is 2.66.

Take LVAHQRYHTGKTPFVCPECGSPCS [Q21S]: the protein stability index amounted to 2.86.

Regarding LVAHQRYHTGKTPFVCPECGWPCS [Q21W], the protein stability index worked out at 2.97.

As to LVAHQRYHTGKTPFVCPECGEPCS [Q21E], the protein stability index came out at 3.59.

On to LVAHQRYHTGKTPFVCPECGVPCS [Q21V], for which the protein stability index was found to be 3.5.

LVAHQRYHTGKTPFVCPECGKPCS [Q21K]: the protein stability index was 3.19.

Turning to LVAHQRYHTGKTPFVCPECGCPCS [Q21C], the protein stability index is 3.08.

LVAHQRYHTGKTPFVCPECGIPCS [Q21I]: the protein stability index amounted to 2.58.

With LVAHQRYHTGKTPFVCPECGPPCS [Q21P], the protein stability index was 2.9.

With LVAHQRYHTGKTPFVCPECGHPCS [Q21H], the protein stability index stood at 3.09.

As to LVAHQRYHTGKTPFVCPECGFPCS [Q21F], the protein stability index is 2.21.

As for LVAHQRYHTGKTPFVCPECGAPCS [Q21A], the protein stability index was 3.06.

LVAHQRYHTGKTPFVCPECGDPCS [Q21D]: the protein stability index is 3.67.

For the variant LVAHQRYHTGKTPFVCPECGTPCS [Q21T], the protein stability index stood at 3.24.

Turning to LVAHQRYHTGKTPFVCPECGYPCS [Q21Y], the protein stability index came to 2.77.

For LVAHQRYHTGKTPFVCPECGGPCS [Q21G], the protein stability index was found to be 3.93.

Consider LVAHQRYHTGKTPFVCPECGRPCS [Q21R], for which the protein stability index turned out to be 2.62.

With LVAHQRYHTGKTPFVCPECGMPCS [Q21M], the protein stability index worked out at 2.44.

As to LVAHQRYHTGKTPFVCPECGLPCS [Q21L], the protein stability index was determined as 2.74.

For LVAHQRYHTGKTPFVCPEYGQPCS [C19Y], the protein stability index was 2.08.

In the case of LVAHQRYHTGKTPFVCPERGQPCS [C19R], the protein stability index came to 2.51.

LVAHQRYHTGKTPFVCPENGQPCS [C19N]: the protein stability index came out at 2.92.

As for LVAHQRYHTGKTPFVCPELGQPCS [C19L], the protein stability index stood at 2.39.

With LVAHQRYHTGKTPFVCPEKGQPCS [C19K], the protein stability index came out at 3.14.

Take LVAHQRYHTGKTPFVCPEFGQPCS [C19F]: the protein stability index amounted to 2.06.

Consider LVAHQRYHTGKTPFVCPEPGQPCS [C19P], for which the protein stability index is 3.21.

As for LVAHQRYHTGKTPFVCPEHGQPCS [C19H], the protein stability index was 2.92.

On to LVAHQRYHTGKTPFVCPEDGQPCS [C19D], for which the protein stability index came out at 3.63.

With LVAHQRYHTGKTPFVCPEQGQPCS [C19Q], the protein stability index was found to be 2.92.

LVAHQRYHTGKTPFVCPEIGQPCS [C19I]: the protein stability index worked out at 2.58.

Turning to LVAHQRYHTGKTPFVCPEVGQPCS [C19V], the protein stability index worked out at 2.42.

Turning to LVAHQRYHTGKTPFVCPEWGQPCS [C19W], the protein stability index was determined as 1.81.

For LVAHQRYHTGKTPFVCPEMGQPCS [C19M], the protein stability index stood at 2.58.

LVAHQRYHTGKTPFVCPESGQPCS [C19S]: the protein stability index was determined as 3.15.

In the case of LVAHQRYHTGKTPFVCPEAGQPCS [C19A], the protein stability index came to 2.89.

For the variant LVAHQRYHTGKTPFVCPETGQPCS [C19T], the protein stability index worked out at 3.26.

For the variant LVAHQRYHTGKTPFVCPEEGQPCS [C19E], the protein stability index is 3.03.

In the case of LVAHQRYHTGKTPFVCPEGGQPCS [C19G], the protein stability index is 3.05.

Regarding LVAHQRYHTGKTPFVCPECGQPIS [C23I], the protein stability index came to 2.98.

For LVAHQRYHTGKTPFVCPECGQPGS [C23G], the protein stability index was found to be 2.87.

As to LVAHQRYHTGKTPFVCPECGQPFS [C23F], the protein stability index stood at 2.49.

Regarding LVAHQRYHTGKTPFVCPECGQPHS [C23H], the protein stability index came to 3.15.

LVAHQRYHTGKTPFVCPECGQPDS [C23D]: the protein stability index was 3.72.

As for LVAHQRYHTGKTPFVCPECGQPAS [C23A], the protein stability index was found to be 3.27.

With LVAHQRYHTGKTPFVCPECGQPES [C23E], the protein stability index came out at 3.09.

As for LVAHQRYHTGKTPFVCPECGQVCS [P22V], the protein stability index is 3.5.

With LVAHQRYHTGKTPFVCPECGQGCS [P22G], the protein stability index turned out to be 3.35.

As to LVAHQRYHTGKTPFVCPECGQICS [P22I], the protein stability index was determined as 3.25.

On to LVAHQRYHTGKTPFVCPECGQFCS [P22F], for which the protein stability index turned out to be 3.1.

Take LVAHQRYHTGKTPFVCPECGQACS [P22A]: the protein stability index came out at 3.58.

Take LVAHQRYHTGKTPFVCPECGQYCS [P22Y]: the protein stability index was 3.84.

In the case of LVAHQRYHTGKTPFVCPECGQWCS [P22W], the protein stability index is 2.38.

LVAHQRYHTGKTPFVCPECGQHCS [P22H]: the protein stability index was 3.41.

Take LVAHQRYHTGKTPFVCPECGQMCS [P22M]: the protein stability index is 2.9.

Take LVAHQRYHTGKTPFVCPECGQSCS [P22S]: the protein stability index stood at 3.53.

Regarding LVAHQRYHTGKTPFVCPECGQLCS [P22L], the protein stability index is 3.13.

In the case of LVAHQRYHTGKTPFVCPECGQNCS [P22N], the protein stability index worked out at 3.77.

As for LVAHQRYHTGKTPFVCPECGQTCS [P22T], the protein stability index was 3.33.

In the case of LVAHQRYHTGKTPFVCPECGQQCS [P22Q], the protein stability index came out at 4.03.

With LVAHQRYHTGKTPFVCPECGQECS [P22E], the protein stability index was 3.75.

For LVAHQRYHTGKTPFVCPECGQRCS [P22R], the protein stability index was 3.28.

LVAHQRYHTGKTPFVCPECGQDCS [P22D]: the protein stability index is 3.69.

LVAHQRYHTGKTPFVCPECGQKCS [P22K]: the protein stability index turned out to be 3.6.

For LVAHQRYHTGKTPFVCPECGQCCS [P22C], the protein stability index is 3.85.

For the variant LVAHQRYHTGKTPFVCPVCGQPCS [E18V], the protein stability index amounted to 2.31.

In the case of LVAHQRYHTGKTPFVCPPCGQPCS [E18P], the protein stability index was determined as 1.91.

With LVAHQRYHTGKTPFVCPWCGQPCS [E18W], the protein stability index was determined as 2.7.

In the case of LVAHQRYHTGKTPFVCPRCGQPCS [E18R], the protein stability index is 2.18.

As for LVAHQRYHTGKTPFVCPYCGQPCS [E18Y], the protein stability index is 2.27.

For the variant LVAHQRYHTGKTPFVCPMCGQPCS [E18M], the protein stability index is 2.58.

For the variant LVAHQRYHTGKTPFVCPQCGQPCS [E18Q], the protein stability index was 3.31.

Turning to LVAHQRYHTGKTPFVCPSCGQPCS [E18S], the protein stability index was 3.11.

For LVAHQRYHTGKTPFVCPNCGQPCS [E18N], the protein stability index came out at 2.34.

On to LVAHQRYHTGKTPFVCPTCGQPCS [E18T], for which the protein stability index came to 2.4.

Consider LVAHQRYHTGKTPFVCPLCGQPCS [E18L], for which the protein stability index was found to be 2.66.

With LVAHQRYHTGKTPFVCPECHQPCS [G20H], the protein stability index was 2.88.

Regarding LVAHQRYHTGKTPFVCPECPQPCS [G20P], the protein stability index was 3.12.

With LVAHQRYHTGKTPFVCPECFQPCS [G20F], the protein stability index was 2.85.

For the variant LVAHQRYHTGKTPFVCPECYQPCS [G20Y], the protein stability index worked out at 2.52.

Turning to LVAHQRYHTGKTPFVCPECTQPCS [G20T], the protein stability index was 3.11.

Take LVAHQRYHTGKTPFVCPECCQPCS [G20C]: the protein stability index worked out at 2.74.

For LVAHQRYHTGKTPFVCPECIQPCS [G20I], the protein stability index was 2.27.

As to LVAHQRYHTGKTPFVCPECEQPCS [G20E], the protein stability index was 3.07.

Turning to LVAHQRYHTGKTPFVCPECNQPCS [G20N], the protein stability index came to 3.25.

In the case of LVAHQRYHTGKTPFVCPECWQPCS [G20W], the protein stability index amounted to 2.55.

On to LVAHQRYHTGKTPFVCPECSQPCS [G20S], for which the protein stability index was determined as 3.13.

On to LVAHQRYHTGKTPFVCPECLQPCS [G20L], for which the protein stability index came to 2.59.

Turning to LVAHQRYHTGKTPFVCPECKQPCS [G20K], the protein stability index worked out at 2.86.

As to LVAHQRYHTGKTPFVCPECRQPCS [G20R], the protein stability index was 2.52.

Consider LVAHQRYHTGKTPFVCPECMQPCS [G20M], for which the protein stability index worked out at 3.03.

For the variant LVAHQRYHTGKTPFVCPECQQPCS [G20Q], the protein stability index worked out at 3.14.

With LVAHQRYHTGKTPFVCPECDQPCS [G20D], the protein stability index was found to be 3.48.

Regarding LVAHQRYHTGKTPFVCPECAQPCS [G20A], the protein stability index stood at 3.06.

For LVAHQRYHTGKTPFVCPECVQPCS [G20V], the protein stability index is 2.47.
